Consider 2 sequences from US20140072613A1, “Compositions and Methods for Treating Cutaneous Scarring” (priority 2012, published 2014).

Assay in all cases: biochemical
Type in all cases: biochemical

Experiment [1] has as its target 266 human kinases (Homo sapiens, UniProt P06241). Conditions: Fyn(h); 100 μM. Summed up: (§1)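 Radiometric filter-binding format: a positively charged substrate takes up radiolabelled phosphate from ATP unless the kinase is inhibited, then is captured on a negatively charged filter membrane. Counts from scintillation are expressed relative to a 100% activity control.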

The target of experiment [2] is 266 human kinases (Homo sapiens, UniProt Q07912). Conditions: ACK1(h); 100 μM. Summed up:
as §1

In experiment [3] the target is 266 human kinases (Homo sapiens, UniProt P00533, L858R/T790M). The following applies: EGFR(T790M,L858R)(h); 100 μM. Summed up: as §1
For experiment [4], the target named is 266 human kinases (Homo sapiens, UniProt Q7KZI7). Conditions: PAR-1Bα(h); 100 μM. The gist of the method: as §1
For experiment [5], the target named is 266 human kinases (Homo sapiens, UniProt P12931, T341M). The following applies: Src(T341M)(h); 100 μM. Summed up: as §1
The target in experiment [6] is T1, 266 human kinases (Homo sapiens, UniProt P29323).
T1 sequence (P29323 19-1055): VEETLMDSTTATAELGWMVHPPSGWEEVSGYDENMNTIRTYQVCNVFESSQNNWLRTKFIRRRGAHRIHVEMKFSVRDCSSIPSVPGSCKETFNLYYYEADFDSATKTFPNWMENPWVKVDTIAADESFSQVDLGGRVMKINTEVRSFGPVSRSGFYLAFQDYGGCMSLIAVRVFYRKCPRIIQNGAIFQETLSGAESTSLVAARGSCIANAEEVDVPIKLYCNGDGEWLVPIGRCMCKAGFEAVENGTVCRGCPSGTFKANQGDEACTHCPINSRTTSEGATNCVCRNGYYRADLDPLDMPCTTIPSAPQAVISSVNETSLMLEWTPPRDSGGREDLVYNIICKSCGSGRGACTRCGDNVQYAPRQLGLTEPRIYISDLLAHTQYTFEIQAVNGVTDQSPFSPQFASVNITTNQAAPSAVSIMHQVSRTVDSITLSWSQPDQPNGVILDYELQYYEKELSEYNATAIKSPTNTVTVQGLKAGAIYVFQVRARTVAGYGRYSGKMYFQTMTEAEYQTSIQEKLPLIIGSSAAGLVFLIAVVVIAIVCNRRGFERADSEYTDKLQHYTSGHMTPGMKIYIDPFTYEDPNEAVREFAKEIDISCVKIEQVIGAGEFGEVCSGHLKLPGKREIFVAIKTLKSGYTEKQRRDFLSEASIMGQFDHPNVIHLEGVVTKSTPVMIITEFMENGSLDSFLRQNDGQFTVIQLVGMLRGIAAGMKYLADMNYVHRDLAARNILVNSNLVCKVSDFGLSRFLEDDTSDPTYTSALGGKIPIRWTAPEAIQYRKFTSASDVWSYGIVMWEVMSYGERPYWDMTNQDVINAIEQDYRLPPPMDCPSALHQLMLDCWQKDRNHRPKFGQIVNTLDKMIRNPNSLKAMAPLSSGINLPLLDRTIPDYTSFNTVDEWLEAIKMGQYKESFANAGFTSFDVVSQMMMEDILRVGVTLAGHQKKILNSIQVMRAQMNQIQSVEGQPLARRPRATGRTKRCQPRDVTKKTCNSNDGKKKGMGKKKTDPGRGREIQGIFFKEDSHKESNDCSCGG
The following applies: EphB2(h); 100 μM. The gist of the method:
as §1

The target of experiment [7] is 266 human kinases (Homo sapiens, UniProt P16591). The following applies: Fer(h); 100 μM. Summed up:
as §1

Experiment [8] deals with 266 human kinases (Homo sapiens, UniProt Q9UK32). The following applies: Rsk4(h); 100 μM. Summed up:
as §1

The target of experiment [9] is 266 human kinases (Homo sapiens, UniProt Q96RG2). Conditions: PASK(h); 100 μM. The gist of the method: as §1
Experiment [10] concerns the target T2, 266 human kinases (Homo sapiens, UniProt Q12866).
T2 sequence (Q12866 21-999): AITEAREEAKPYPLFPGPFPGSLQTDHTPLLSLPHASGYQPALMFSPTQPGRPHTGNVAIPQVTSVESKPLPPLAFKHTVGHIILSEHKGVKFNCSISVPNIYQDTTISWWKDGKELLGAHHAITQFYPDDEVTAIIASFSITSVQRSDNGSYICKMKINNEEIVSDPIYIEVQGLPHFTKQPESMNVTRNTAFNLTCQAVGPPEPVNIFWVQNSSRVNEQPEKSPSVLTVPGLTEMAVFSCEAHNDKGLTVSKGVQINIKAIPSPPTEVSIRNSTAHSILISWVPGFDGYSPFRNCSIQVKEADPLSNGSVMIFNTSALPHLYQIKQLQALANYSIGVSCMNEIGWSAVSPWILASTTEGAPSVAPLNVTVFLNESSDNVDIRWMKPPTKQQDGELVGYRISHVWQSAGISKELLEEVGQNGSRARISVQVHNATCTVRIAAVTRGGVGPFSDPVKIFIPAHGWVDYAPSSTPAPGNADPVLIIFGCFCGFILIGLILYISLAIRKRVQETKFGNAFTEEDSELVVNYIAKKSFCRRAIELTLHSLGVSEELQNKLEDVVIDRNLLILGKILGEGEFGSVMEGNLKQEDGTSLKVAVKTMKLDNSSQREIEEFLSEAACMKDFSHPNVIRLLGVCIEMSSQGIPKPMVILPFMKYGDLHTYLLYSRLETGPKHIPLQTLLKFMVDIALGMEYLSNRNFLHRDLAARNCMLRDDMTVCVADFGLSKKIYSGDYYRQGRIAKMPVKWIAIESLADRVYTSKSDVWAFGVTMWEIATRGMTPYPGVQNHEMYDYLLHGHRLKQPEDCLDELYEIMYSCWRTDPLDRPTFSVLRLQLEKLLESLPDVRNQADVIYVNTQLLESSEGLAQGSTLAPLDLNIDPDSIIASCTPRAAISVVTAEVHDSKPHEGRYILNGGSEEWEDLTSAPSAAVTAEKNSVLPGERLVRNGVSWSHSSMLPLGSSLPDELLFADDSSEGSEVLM
Conditions: Mer(h); 100 μM. Summed up:
as §1

Experiment [11] concerns the target 266 human kinases (Homo sapiens, UniProt P17252). Conditions: PKCα(h); 100 μM. The gist of the method: as §1
For experiment [12], the target named is 266 human kinases (Homo sapiens, UniProt Q9UIK4). Conditions: DAPK2(h); 100 μM. The gist of the method: as §1
266 human kinases (Homo sapiens, UniProt Q9UIK4), sequence (Q9UIK4 whole entry): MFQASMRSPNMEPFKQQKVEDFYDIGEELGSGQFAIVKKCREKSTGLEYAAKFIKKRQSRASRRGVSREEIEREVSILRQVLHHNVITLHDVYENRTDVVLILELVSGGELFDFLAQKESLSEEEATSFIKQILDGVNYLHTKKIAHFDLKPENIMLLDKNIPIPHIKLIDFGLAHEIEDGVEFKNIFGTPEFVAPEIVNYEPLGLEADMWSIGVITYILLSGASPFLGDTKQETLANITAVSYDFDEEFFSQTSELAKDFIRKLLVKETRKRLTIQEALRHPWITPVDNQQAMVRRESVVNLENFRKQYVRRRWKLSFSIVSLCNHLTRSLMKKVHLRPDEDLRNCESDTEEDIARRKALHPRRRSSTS

266 human kinases (Homo sapiens, UniProt Q7KZI7), sequence (Q7KZI7 whole entry): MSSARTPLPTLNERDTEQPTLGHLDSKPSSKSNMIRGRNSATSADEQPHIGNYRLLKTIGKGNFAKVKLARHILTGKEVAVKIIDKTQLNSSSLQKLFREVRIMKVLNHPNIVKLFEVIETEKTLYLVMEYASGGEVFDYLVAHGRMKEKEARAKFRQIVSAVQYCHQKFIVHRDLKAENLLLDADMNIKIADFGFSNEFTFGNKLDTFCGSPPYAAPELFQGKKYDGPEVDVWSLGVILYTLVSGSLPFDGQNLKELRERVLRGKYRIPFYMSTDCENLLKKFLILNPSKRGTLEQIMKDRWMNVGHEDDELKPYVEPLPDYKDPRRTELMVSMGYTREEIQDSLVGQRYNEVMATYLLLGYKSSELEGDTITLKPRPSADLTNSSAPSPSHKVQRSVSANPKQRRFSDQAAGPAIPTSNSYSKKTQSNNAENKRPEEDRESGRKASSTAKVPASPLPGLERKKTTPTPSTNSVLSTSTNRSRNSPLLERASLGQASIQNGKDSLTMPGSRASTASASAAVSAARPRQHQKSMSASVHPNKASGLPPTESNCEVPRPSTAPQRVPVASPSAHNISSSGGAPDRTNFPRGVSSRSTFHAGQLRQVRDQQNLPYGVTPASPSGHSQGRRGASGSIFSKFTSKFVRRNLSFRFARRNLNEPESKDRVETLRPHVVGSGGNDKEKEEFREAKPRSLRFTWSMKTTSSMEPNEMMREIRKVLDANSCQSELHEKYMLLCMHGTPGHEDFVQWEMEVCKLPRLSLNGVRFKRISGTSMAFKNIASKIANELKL
266 human kinases (Homo sapiens, UniProt P06241), sequence (P06241 whole entry): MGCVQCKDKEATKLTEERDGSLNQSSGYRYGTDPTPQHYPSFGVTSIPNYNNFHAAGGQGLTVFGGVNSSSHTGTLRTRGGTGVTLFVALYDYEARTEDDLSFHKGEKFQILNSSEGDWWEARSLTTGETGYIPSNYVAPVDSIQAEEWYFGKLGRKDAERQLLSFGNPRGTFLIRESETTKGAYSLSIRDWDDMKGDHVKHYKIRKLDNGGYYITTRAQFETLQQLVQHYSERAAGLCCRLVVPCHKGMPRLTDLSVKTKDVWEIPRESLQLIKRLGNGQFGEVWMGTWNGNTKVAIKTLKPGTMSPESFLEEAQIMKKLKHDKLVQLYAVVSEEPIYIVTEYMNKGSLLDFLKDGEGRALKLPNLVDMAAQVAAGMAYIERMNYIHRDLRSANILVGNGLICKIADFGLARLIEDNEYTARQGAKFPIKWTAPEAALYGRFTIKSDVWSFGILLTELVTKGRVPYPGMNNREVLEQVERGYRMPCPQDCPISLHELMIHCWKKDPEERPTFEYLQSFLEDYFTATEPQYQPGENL
266 human kinases (Homo sapiens, UniProt Q9UK32), sequence (Q9UK32 whole entry): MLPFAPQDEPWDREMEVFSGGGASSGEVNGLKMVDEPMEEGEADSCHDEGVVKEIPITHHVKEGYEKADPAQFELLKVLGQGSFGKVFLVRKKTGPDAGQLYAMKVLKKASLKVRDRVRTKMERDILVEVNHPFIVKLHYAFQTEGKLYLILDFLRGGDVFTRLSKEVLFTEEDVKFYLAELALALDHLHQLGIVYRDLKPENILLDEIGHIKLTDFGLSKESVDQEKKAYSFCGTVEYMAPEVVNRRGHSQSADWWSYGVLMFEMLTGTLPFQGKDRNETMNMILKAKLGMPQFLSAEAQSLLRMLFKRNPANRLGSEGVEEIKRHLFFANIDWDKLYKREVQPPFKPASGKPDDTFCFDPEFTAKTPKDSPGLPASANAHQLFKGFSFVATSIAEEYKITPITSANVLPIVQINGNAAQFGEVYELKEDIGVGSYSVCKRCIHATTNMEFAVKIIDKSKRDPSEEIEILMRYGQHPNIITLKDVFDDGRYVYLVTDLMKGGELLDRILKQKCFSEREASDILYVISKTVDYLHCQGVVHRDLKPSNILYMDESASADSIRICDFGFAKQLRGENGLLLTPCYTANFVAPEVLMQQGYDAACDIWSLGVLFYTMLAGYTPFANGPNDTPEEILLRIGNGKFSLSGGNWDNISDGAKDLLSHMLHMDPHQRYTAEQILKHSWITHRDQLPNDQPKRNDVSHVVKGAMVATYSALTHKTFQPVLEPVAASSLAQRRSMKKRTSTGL
266 human kinases (Homo sapiens, UniProt Q07912), sequence (Q07912 whole entry): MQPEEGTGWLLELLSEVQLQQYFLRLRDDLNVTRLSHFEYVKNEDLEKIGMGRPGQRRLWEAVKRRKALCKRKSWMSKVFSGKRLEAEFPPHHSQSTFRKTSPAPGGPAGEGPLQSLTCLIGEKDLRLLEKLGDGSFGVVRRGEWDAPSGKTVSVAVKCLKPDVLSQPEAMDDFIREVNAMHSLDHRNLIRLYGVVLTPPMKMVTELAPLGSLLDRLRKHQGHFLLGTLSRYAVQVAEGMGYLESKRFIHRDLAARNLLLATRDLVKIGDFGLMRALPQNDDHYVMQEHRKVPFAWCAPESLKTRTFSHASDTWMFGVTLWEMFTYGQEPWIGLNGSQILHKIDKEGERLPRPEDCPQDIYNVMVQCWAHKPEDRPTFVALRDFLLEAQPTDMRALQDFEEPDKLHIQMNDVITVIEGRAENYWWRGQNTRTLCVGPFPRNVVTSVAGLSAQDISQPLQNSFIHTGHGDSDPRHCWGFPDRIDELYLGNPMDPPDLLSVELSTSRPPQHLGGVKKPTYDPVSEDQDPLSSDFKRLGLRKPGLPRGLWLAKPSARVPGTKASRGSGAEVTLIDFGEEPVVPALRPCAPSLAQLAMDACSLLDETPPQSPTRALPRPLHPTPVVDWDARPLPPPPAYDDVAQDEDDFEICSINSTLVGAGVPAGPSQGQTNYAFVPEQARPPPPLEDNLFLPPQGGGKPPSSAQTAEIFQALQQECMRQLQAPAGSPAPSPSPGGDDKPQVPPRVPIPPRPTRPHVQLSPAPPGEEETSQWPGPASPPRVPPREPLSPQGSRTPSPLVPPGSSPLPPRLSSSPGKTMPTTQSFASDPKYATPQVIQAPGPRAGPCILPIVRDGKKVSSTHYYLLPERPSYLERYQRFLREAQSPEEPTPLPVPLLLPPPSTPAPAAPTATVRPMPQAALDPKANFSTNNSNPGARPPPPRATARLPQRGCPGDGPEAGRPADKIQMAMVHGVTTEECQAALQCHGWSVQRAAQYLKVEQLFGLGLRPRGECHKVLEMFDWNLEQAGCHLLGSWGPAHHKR
266 human kinases (Homo sapiens, UniProt P16591), sequence (P16591 whole entry): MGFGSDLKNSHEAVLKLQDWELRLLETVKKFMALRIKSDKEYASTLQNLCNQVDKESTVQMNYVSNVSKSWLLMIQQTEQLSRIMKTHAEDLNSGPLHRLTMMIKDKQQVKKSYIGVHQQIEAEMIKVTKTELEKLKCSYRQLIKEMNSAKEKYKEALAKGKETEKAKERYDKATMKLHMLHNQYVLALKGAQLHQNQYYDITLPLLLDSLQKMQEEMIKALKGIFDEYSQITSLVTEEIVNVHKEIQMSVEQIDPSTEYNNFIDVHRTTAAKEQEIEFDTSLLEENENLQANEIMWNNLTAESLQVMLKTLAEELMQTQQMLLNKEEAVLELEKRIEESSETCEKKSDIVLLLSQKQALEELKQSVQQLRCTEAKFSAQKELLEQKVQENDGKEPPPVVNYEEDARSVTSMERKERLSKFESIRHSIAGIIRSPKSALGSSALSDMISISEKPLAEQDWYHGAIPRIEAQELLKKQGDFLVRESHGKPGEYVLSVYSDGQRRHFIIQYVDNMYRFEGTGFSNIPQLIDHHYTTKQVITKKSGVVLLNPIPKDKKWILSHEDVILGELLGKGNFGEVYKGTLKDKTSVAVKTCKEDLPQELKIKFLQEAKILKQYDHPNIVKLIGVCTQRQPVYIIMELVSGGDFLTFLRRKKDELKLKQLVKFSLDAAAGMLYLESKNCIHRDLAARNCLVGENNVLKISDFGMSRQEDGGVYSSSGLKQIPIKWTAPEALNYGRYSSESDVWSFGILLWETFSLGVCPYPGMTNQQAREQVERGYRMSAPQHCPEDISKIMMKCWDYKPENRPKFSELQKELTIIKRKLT

Take “YARAAARQARAKALNRQLGVA (mammal) [MMI-0200]”: the “% activity” value worked out at 75% with 266 human kinases [1]; 97% with 266 human kinases [2]; 108% with 266 human kinases [3]; 110% in the experiment with 266 human kinases [4]; 56% in the experiment with 266 human kinases [5]; 128% with 266 human kinases [6]. Moreover, the “% activity” value with 266 human kinases [7] was determined as 101%; in the experiment with 266 human kinases [8], 125%; in the experiment with 266 human kinases [9] it was 60%; with 266 human kinases [10], 90%; with 266 human kinases [11], 100%; with 266 human kinases [12], 92%.
For the sequence “HRRIKAWLKKIKALARQLGVAA (mammal) [MMI-0500]”, the “% activity” value is on record as 83% with 266 human kinases [1]; 64% in the experiment with 266 human kinases [2]; 53% with 266 human kinases [3]; 97% in the experiment with 266 human kinases [4]; 59% with 266 human kinases [5]; 70% with 266 human kinases [6]. For the same sequence, the “% activity” value amounted to 196% with 266 human kinases [7]; 29% with 266 human kinases [8]; 9% with 266 human kinases [9]; 17% in the experiment with 266 human kinases [10]; 3% in the experiment with 266 human kinases [11]; 3% in the experiment with 266 human kinases [12].
